Consider 2 molecules from paper PMC2718698, “The TCL1A Oncoprotein Interacts Directly with the NF-κB Inhibitor IκB” (PLoS ONE, 2009).

Broadly, the stoichiometry N is the number of molecules, sites or subunits per partner or assembly. What is called Kd is a measure of binding affinity in units of concentration.

For assay [1], the target named is all-cysteine-to-serine (7CS) mutant of the IκBα ankyrin domain, IκB(67–302)7CS (human) (UniProt P25963). The assay can be described thus: ITC; TCL1A (470 µM) injected into IκB_ank^7CS (45 µM) in the cell; 20°C; 10 mM Tris pH 7.4, 300 mM NaCl, 1 mM β-mercapto ethanol. A general note: In ITC the heat of successive injections is recorded.
The target in assay [2] is 1:1 TCL1A:IκB_ank^7CS complex (human) (UniProt P56279). The experiment in a line: ITC; AKT_PH (490 µM) injected into TCL1A (40 µM) or into equimolar TCL1A and IκB_ank^7CS in the cell; 20°C; 20 mM sodium phosphate pH 7.1, 300 mM NaCl, 2 mM EGTA, 1 mM β-mercapto ethanol.
Assay [3] addresses T1, T cell leukaemia/lymphoma 1A (TCL1A), purified recombinant human protein (human, UniProt P56279 1-114).
T1 construct: TCL1A, human; 7 N-terminal residues are not seen in the crystal structure 1JSG
Described as above. Particulars: both partners purified.

T1 sequence (P56279 whole entry): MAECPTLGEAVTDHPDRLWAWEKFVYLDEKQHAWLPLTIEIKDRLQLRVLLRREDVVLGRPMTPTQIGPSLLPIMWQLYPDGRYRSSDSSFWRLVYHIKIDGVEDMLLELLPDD

As to “T cell leukaemia/lymphoma 1A (TCL1A), purified recombinant human protein (from UniProt P56279 1-114) (natural protein)”, in assay [1], the dH is -12.7 kcal/mol and the stoichiometry N is 0.9.

B1: AKTβ PH domain, human AKTβ PH(1–118) (domain or fragment, UniProt P31751 1-118, looked up)
chain: MNEVSVIKEGWLHKRGEYIKTWRPRYFLLKSDGSFIGYKERPEAPDQTLPPLNNFSVAECQLMKTERPRPNTFVIRCLQWTTVIERTFHVDSPDEREEWMRAIQMVANSLKQRAPGED
For the molecule B1, in assay [2], the Kd came to 5.1 µM, the dH was -9.32 kcal/mol and the stoichiometry N came to 0.7. Besides, in assay [3], the dH was -14.6 ± 0.598 kcal/mol and the “stoichiometry N” value stood at 0.7 ± 0.3.
